Experiment: soluble on expression in E. coli; label from the status in PepcDB or PDB records

Sequence	soluble on expression in E. coli
MGSDKIHHHHHHAQNTASVQEAMANYDYKTVIRLIDEESASPQLLIQKAKALKSLGRTAEALSTLQHIIIELPENQQALVEAAECCRQLSKFNEALGYYRKVMELNPEHIYAHLQYTRLLYNYQRYGDALRESIALARKDSSATVLRLMAESMEGAGMPVESMFCYLSIIRKYPSDYLSVAKLGSIFNTMKDYEGAIALTEAYRRTDSTNVEVNRQNALAYCLRKEYPTAIKRYQDLTARGDSTLLTCYYLGVSYYATKEYYKARDWLLKAKSCQSPGANLLYYLGRSCSKTLWKQEGIGYLNQAIALTIPADSIMERLYSGLADCYRQTKQTRDQIKATKEQYKYAPDKHILLYNLAFLSDKIGDTKATEHYLQAFLRTKSKQNAVLQQPDDDEEEPAPYIDYYKSATNKLESIRKEKFLKGEK	not soluble
MGSDKIHHHHHHAAPSPDAQRVAAYAASHFQQAQIDTLKTLVGYDTRARDGLTPDTDPVFADFKRALGVKARMLGLDVEDNGYVMLISLSPEGAGTDVKKVGVITHGDVQPADPSLWPQSPYELTETADGRLVGRGAEDDKGPIATALYAMKAIKDSGIVLKRRIELLVYMAEESDWEPLKDFLKTYEPADINITLDAEYPVVTGEKGWSQIKLSLPRVMVKVGADTPVLTYFSGGSFASQIPQQASAVIQNTNPELVAALKARAKTLPIKTDFIDEPQGLTIHATGKAAHSSTPEDGINAVAYLAELLSPTADGGIPEWPMTTAAVTVDFLHSLVGTGLYGERFGKLGYSDEFMGPMTLAPTLITEGKEGTDVTLNLRRPVGRTPEALDKLAIAAIHGWQDARGTQVADIETYWGTPMLIDDAPHLETLLGVFGHYTNTAGPKPIAIGGSTNAKLFPNALSFGPAMPGMEYTGHSEYEFITRDQLKLNLEMYTAALVELAMRE	not soluble
PSIKSGTILHAWNWSFNTLKNNMKDIHDAGYTAIQTSPINQVKEGNKGDKSMGNWYWLYQPTSYQIGNRYLGSEEEFKEMCAAAEEYGVKVIVDAVINHTTSDYAAISNEIKSISNWTHGNTQIKNWSDRWDVTQNSLLGLYDWNTQNTQVQSYLKRFLERALNDGADGFRYDAAKHIELPDDGNYGSQFWPNITNTSAEFQYGEILQDSASRDAAYANYMNVTASNYGHSIRSALKNRNLSVSNISHYASDVSADKLVTWVESHDTYANDDEESTWMSDDDIRLGWAVIASRSGSTPLFFSRPDGGGNGVRFPGKTQIGDRGSALFEDQAIVAVNTFHNVMAGQPEELSNPNGNNQIFMNQRGSKGVVLANAGSSSVSINASTKLPDGSYDNKAGTGSFQVRDGKLTGTINARSVAVLYPD	soluble
MGSDKIHHHHHHMKNIKIFPKDWLQLHPYKQSTPVDSYYTGIANRIYDIMEKTELVNSFEGEETKQICIRMAAYFEDVISGMGLWRAFILTHKELYGKYLPFYTPDDHYYDDEVNLEDVRFLLWHYTQQYHGYRKGTFVSPDNPANESTGMLIYDLFCKEWTTAPENTRMAKLFALDTRYERQEDYDRLLQWFHYESYILPESARELSDFAHDRWKEQPDLNQEQLNNLLVNSHGMMAYTSKTSLLGLTSPQWLAKILPAEHPDHAVFQNTADESVATLPDDMLEENRQQYETFRKAAGDKLLLYFDKTEDAQTFITETSGLIPAENFHLPEDWQGKKLAIYATPEEGAQVITRDVELIKDENNPFYDANRAAKQALSFFIVKHCSVYFLPELVKRGMLADAQTKSLISPERGKAIIQENWKFLARYFIREYPNR	not soluble
MSAKLISVTKPVVEGVNTAEELIAYAARVSNPENQINNKTASGLLKYCIRHKHWSIFETAFMTLELKTSRGIAAQVIRHRSFHFQEFSQRYASVMETPPPHQARFQDHKNRQNSLDTVPEDDQTWWATEQEKLYAQSMELYNKALEKGIAKECARFILPLSTPTTIYMSGTIRDWIHYIELRTSNGTQREHIDLANACKEIFIKEFPSIAKALDWVH	soluble
MGSDKIHHHHHHMSNVDHAEIAKFEALAHRWWDRESEFKPLHDINPLRVNWIDERAGLAGKKVLDIGCGGGILSEAMAQRGASVTGIDMGEAPLAVARLHQLESGVAVDYRQITAEQMAEEMPGQFDVVTCLEMLEHVPDPASVIRACHRLVKPGGQVFLSTINRNPKAYLFAVIGAEYILQLLPRGTHDFRKFIRPSELGAWSREAGLEVKDIIGLTYNPLTKHYKLANDVDVNYMVQTKREA	not soluble
MGSDKIHHHHHHAQTEVLTGVTRGKDYGVVYALPKTQIEIEIKANKVNYKPGEFSKYADRYLRLTNVSAEPEEYWELNSVKVKPVGVPNSEATYFVKLKDKTVAPLMELTEEGLIKSINVPYSSNNAKNAANNAVAPQRKANPRDFLTEEILMASSTAKMAELVAKEIYNIRESKNALLRGQADNMPSDGAQLKIMLDNLNLQEEAMTEMFSGVRNKEEKTFTVRLTPDKEFDNEVAFRFSKKLGIVANNDLAGTPFYISLKDLKTVKIPQEDGKKKKEMEGIAYNVPGQAMVTLTDGKKKLYEGEIPVTQFGIIEYLAPVLFNKNSTIKVYFDPVTGGLLKVDREESK	not soluble
MSSSIREEVHRHLGTVALMQPALHQQTHAPAPTEITHTLFRAYTRVPHDVGGEADVPIEYHEKEEEIWELNTFATCECLAWRGVWTAEERRRKQNCDVGQTVYLGMPYYGRWLLTAARILVDKQFVTLTELHNKIVEMRERVASGQGLGEYLPPKAK	soluble
MKFDFPQVDLPCEILAWNDVTEDILNIYKQSCRLKAGIFAICTEGKMTATINLIDYEIKPNDLITLLPGTIIQFRERTEKVRLCFAGFSSECVERINLIKSMVSSFSKITECPIVELQEDIASYLIDYFSLLARVTCDEKLSLPSEMTEVSLRSILTAVGLIYQRYSSKNHNTNRKEEICRELVGLVTEHYTEERRAQFYADKLGISLQHLSTTVKQVTGRNVLDVIAYVVIIDAKAKLKSSNMTIQEIAYSLNFPSASFFGKYFRRYVGMSPLEFRNS	not soluble
MAHHHHHHMQGTGAVSASHCTFNQRSGVSKKEELGDAMKVDNVFPGGPKKDVLVSCANKSRQTAAGIFVHWCCRCESETSGDRGNVCEFFGDCECDDIYSTSNVPKCVKGDHMWRDSSTALRAVLQDVKGRDACNISTPNGKEILMKLTREELTSNIAPQDSSSKIFLFLLAALLMQDESVAQTSN	not soluble
MSLSVPQKRYFLGLHIGHDRAITVADDTNLVFHTAVERLDRKKHSDSFHLPVEEIKTVLLYLNVDVSELRGVCISYLAVDASRVSMTLEASFRDAFPDFEGRFSALDHHLAHALGAKVCSGFDEALVVVADGAGDQRLWGSQSETIYHVSSDTFYLLDERVQSPPLTYINRPEFYDPSYFRPDDQERQISLGLKYEQITYLCGFGPGQAGQTMALAAFGKPLFDYRNMLPKDLSFSLRYTDFLREFEALARADGLSLIQFAKSRRSDIAATYQAYLSEALSAIVKDALDRFPSKRVCFSGGLFLNCLSNRRLHDEHPDRELFFFPACNDEGQSIGTAAYAYWQEHSRLPREGHHHHHH	not soluble
MAEKLSAHCHCGAVAFTVELSDGFNTVRRCNCSYCRMRGAVAVSSPRSGIEVVRGGDKLTEYRFNTGEAVHFFCSVCGIYTFHQRRSNPQQYGVNVACIDGVSPFDFP	not soluble
MSLAAEGKAIAKVNDLVIFVPYVVPGDVVDLQIKRKKNKYAEAEAVKFHELSPVRAVPFCQHYGVCGGCKWQVLPYSEQIRYKQKQVEDNLRRIGKIELPEISPILGSAKTEFYRNKLEFTFSNKRWLTNDEVRQDVKYDQMNAVGFHIPGAFDKVLAIEKCWLQDDISNRIRNAVRDYAYEHDYSFINLRTQEGMLRNLIIRTSSTGELMVIVICKITEDHEMELFKQLLQFIADSFPEITSLLYIINNKCNDTINDLDVHVFKGKDHMFEEMEGLRFKVGPKSFYQTNSEQAYNLYKIAREFAGLTGKELVYDLYTGTGTIANFVSRQARQVIGIEYVPEAIEDAKVNAEINEIKNALFYAGDMKDMLTQEFINQHGRPDVIITDPPRAGMHQDVVDVILFAEPKRIVYVSCNPATQARDLQLLDGKYKVKAVQPVDMFPHTHHVENVVLLELREGHHHHHH	soluble
MGSDKIHHHHHHRNGKTYTQPLTGQATDKIGEQIRELFNIDINPNGPAVKANNYVSTYMKRLYKQLENYEHGENHNEEEVNAWLSADRIVSHMAQEVSHRLDDGSYSIRFAKEHVPAKEGQSIVRAQLRIHIQGIVSPVFFYIEDTNLPGDTVLVSSDDPTVVTDVTTMVDRWSHLQLSTLPIVTARASTNDELKIEAFLVIALKDEDAGPPKKRSR	not soluble
MLIEMWSPVFKKHGEIREPICFHHGLNVIMGMDLADNSIGKSSSLLAIDFIFGGNSYLKSIAVKKLGDHPIYFCFQFEKKFYFSRDTANPDIILVCDKSYSPTGETMDLGIFLNKLKKRYHLDSPELSFRLAMSGFFRIAGKSNQNTDFPLQVYSSQKSSESITTLIQLFNLYDNIARYKERLKDKSDQLTTFRNARRYAFISNLVGGKKQFEANVSEIKRLEYDLAHLQDTHQDKIDSDDI	not soluble
SKNAVANSSSSEPAVSQTENASSSLEHENKARELASDAQANKTQELAPDSRQESLAPQEPFIDINRMLDSLSGDEGAVRMLLEVFIQDHAEDGSKLHKLLNEDIDNAQRAAHSLKGVSGSLGAMPLHYISGEIELLIKQGKEVPDNKLCQLRDVLQQTTLFAEKVLNSEKIREVLTD	not soluble
MGHHHHHHSHMDAIHKQKSLQFKKTMDAKKNYEQKCRDKDEAEQAVSRSANLVNPKQQEKLFVKLATSKTAVEDSDKAYMLHIGTLDKVREEWQSEHIKACEAFEAQECERINFFRNALWLHVNQLSQQCVTSDEMYEQVRKSLEMCSIQRDIEYFVNQRKTGQIPPAPIMHENFYSSQKNAVPAGKATGPNLARRGPLPIPKSSPDDPNYSLVDDYSLLYQ	not soluble
MLLKTIYCKVEEEKKKLFSNAQEKWSDIRHLDGFHGQFGGWYEDEACVFTLWEDRSTYQSFMNGAHDTIYLNSNQEDTFLSCEIELFQTLYDITDTHLKDVVTEGSFVRVAICDVKVEKEKYFLQKQETIWNKGMEKAKGMLGGVVGKSLKNENRYIVLTYWKDEQTHQHYVEEIFPDLYKLANIHEDIEEIKGKQAVCKEEWLVY	not soluble
NKDFWIKGMGNFTLAKGRYEVYEEPDYASYGQGYRSRIGQPINFNYGYIAERLFIDENDVANSPSQTSFNGGAMPGDIKYKDLNNDGKITSEDQIFLGYPNQPEITYGFGFSTGYKGFDLSMFFQGNARVSFFIDPRNTSPFVNYDAGGKTGVQQCLDVIAKDHWSEDNRNIYAFWPRLSPTLVENNMQTSTWWMHDGSFIRLKTVELGYTFSQKALKKIGVQSLRLYLTGSNLLTFSKFKLWDAEMGNNGLGYPIQRVYNLGININF	not soluble
MSLGLTPHAPSPLADRLRPQSLDEVVGQQHLLGPEGPIGRMAAARRLASMILWGPPGTGKTTIARLLAKAGGYEFMQISAVFSGVADLKKAFEQARARRMAGQSTLLFVDEIHRFNRAQQDGFLPFVEEGIVTLVGATTENPSFELNGALLSRCQVFVLKRLTEESLELLLQRAEAAENRPLPIDAEARSALVAMADGDGRYLLTLAETLFSIGTDTPLNPTQLGQFLQKRRPAYDKDREEHYNLISALHKSVRGSDPDAALYWLARMLEGGEDPLFIARRLVRMASEDIGAADPLSLLLTTAAKDAYDFLGSPEGELALAQAVVHMASAPKSNAVYTAYKAARRAAKETGSLMPPSHILNAPTKLMKSLGYGDGYAYDHDVEGGVSGQNYFPDGMERRRFYEPKPVGAEAKVRERLEAWGKVRKDGKEGHHHHHH	soluble
MAEEKVKDEAMQIMGMFQILPRLVVFDLDYTLWPFYCECRSKREMPSMYPQAKGILSALKEKGIEMAIASRSPTSDIANTFLDKLNIKPMFVAKVSKMGVTSILVGDGVTLGAFRQGLTEFTQNHNSIEKNKQVWRDKYSGKPTSSETDKD	soluble

— the DeepSol protein solubility set
